Assay results published in patent US20070135338A1 (published 2007).
No end group written: not given here.

Biological target: GLP-1R on Rinm cells
Assay: cell-based or functional assay

B1: GLP-1 peptide (peptide)
peptide: HAEGTFTSDVSSYLEGQAAKEFIAWLVKGRG
modifications: not fully specified
Question: B1 was tested. Which “cAMP activity in Rinm cells (EC50)” value did it give?
Answer: The value was 400 pM.
